T1: BCMA (UniProt Q02223 1-54, limits assumed)
T1 construct: also called antigen; CD269
T1 sequence (looked up): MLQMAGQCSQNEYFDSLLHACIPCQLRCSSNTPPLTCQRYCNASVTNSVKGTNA


Columns and labels:
[1] = target: Neonatal Fc Receptor (FcRn) (UniProt P55899 24-297; P61769 21-119, limits assumed); test: SPR specific binding activity, FcRn on NTA chip; ref std #162397940
Procedure: The FcRn binding concentration of the sample was determined by interpolation of the binding response on a calibration curve. Specific binding activity (%) was calculated by dividing the FcRn binding concentration by the total protein concentration.

[2] = target: T1, BCMA; test: SPR specific binding activity, protein A capture; ref std #162397940
Procedure: (§1) The specific binding activity (%) was calculated by dividing the BCMA or FcγRIIIa binding concentration by the absorbance at 280 nm concentration.

[3] = target: T2, FcγRIIIa (UniProt P08637 17-208, limits assumed); test: as above
T2 construct: also called CD16a
Procedure: as §1

[4] = target: T1, BCMA; test: SPR, protein A capture; H2O2-treated 1 h; ref std #182407660A
Procedure: as §1

[5] = target: T1, BCMA; test: SPR as in Example 4; glyco-enriched samples of belantamab
Procedure: as §1

Chain of Neonatal Fc Receptor (FcRn) (P55899 24-297 limits assumed, form in doubt, chain 1 of 2): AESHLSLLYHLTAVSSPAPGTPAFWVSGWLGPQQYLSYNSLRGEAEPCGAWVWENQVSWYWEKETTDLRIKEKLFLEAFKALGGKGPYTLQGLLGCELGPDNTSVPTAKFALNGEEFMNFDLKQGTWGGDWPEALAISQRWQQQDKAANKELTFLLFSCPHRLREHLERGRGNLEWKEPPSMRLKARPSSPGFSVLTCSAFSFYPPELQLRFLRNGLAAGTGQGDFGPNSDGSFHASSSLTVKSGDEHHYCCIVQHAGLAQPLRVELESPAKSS
Chain of Neonatal Fc Receptor (FcRn) (P61769 21-119 limits assumed, form in doubt, chain 2 of 2): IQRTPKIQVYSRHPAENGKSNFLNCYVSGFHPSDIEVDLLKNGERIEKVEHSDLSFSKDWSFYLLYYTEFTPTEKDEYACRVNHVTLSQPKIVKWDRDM
T2 sequence (P08637 17-208 limits assumed): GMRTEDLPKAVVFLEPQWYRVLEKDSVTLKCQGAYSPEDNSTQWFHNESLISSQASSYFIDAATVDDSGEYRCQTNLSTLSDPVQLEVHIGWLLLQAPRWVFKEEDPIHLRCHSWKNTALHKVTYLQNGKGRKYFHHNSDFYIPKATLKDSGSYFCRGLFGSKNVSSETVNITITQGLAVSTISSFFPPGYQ

Row | Binder | FcRn (%) [1] [%] | BCMA (%) [2] [%] | FcγRIIIa (%) [3] [%] | % Antigen Specific Binding [4] [%] | Specific BCMA binding activity [5] [%]
1 | belantamab mafodotin DL4b species (antibody, human IgG1, kappa, drug load of four MMAF; conjugation sites as printed: LC C230, HC 233, LC C230 and HC 233) heavy: not shown light: not shown | 99 | 90 | 91 |  | 
2 | belantamab mafodotin (antibody, human IgG1, kappa, MMAF on LC C214 in part of the molecules; MMAF conjugated to interchain cysteine sulfhydryls (sites printed at paragraph 239: HC 224, C230, HC 233); heterogeneous drug load DL0 to DL8, average DAR about 4 (2.1 to 5.7 in the DAR samples of Example 4), Antibody-drug conjugate: belantamab conjugated to MMAF; Tested as lots, as samples of differing average DAR and as forced-degradation samples (oxidised, base, acid, thermal, photo); the sample is named in each row; also called anti-BCMA ADC; ADC) heavy: not shown light: not shown | 101 | 96 | 97 | 99 | 
3 | belantamab deglycosylated with PNGaseF (antibody, human IgG1, kappa, N-linked glycans removed with PNGaseF) heavy: not shown light: not shown |  |  |  |  | 95
4 | belantamab mafodotin DL2 species (antibody, human IgG1, kappa, MMAF on LC C214 of one light chain; drug load of two MMAF per antibody; conjugation sites LC C214 and HC 224 (one embodiment)) heavy: not shown light: not shown | 109 | 99 | 104 |  | 
5 | belantamab mafodotin DL8 species (antibody, human IgG1, kappa, MMAF on LC C214; drug load of eight MMAF; conjugation sites as printed: LC C214, HC 224, LC C214, HC 224, LC C230, HC 233, LC C230 and HC 233) heavy: not shown light: not shown | 93 | 86 | 82 |  | 
6 | belantamab mafodotin DL4a species (antibody, human IgG1, kappa, MMAF on LC C214; drug load of four MMAF; conjugation sites LC C214, HC 224, LC C214 and HC 224) heavy: not shown light: not shown | 102 | 95 | 103 |  | 
7 | belantamab mafodotin DL0 species (antibody, human IgG1, kappa, no drug load, antibody without cytotoxic agent) heavy: not shown light: not shown | 108 | 103 | 110 |  | 
8 | belantamab mafodotin DL6 species (antibody, human IgG1, kappa, MMAF on LC C214 of one light chain; drug load of six MMAF; conjugation sites as printed: LC C214, HC 224, LC C230, HC 233, LC C230 and HC 233) heavy: not shown light: not shown | 97 | 89 | 84 |  | 

Source: patent publication US20220289859A1 (GlaxoSmithKline, published 2022)
